Experiments:
H929 cells [1] = experiment: In vitro sensitivity to abraxane and bortezumib; type: cell-based; details: Homo sapiens, NCI-H929
Protocol: The sensitivity of H929 and U266B cells to abraxane and bortezumib (BTZ) was measured in vitro.

H929 cells [2] = experiment: Cell viability and cell density at varying LMB70 concentrations; type: cell-based; details: 2 hours or 6 hours exposure
Protocol: H929 cells were exposed to 2, 10, and 100 ng/ml LMB70 for 2 hours or 6 hours. Cell viability and cell density were analyzed.

MM-3 cells from patient = experiment: WST assay, cells from multiple myeloma patient; type: cell-based, human; details: cells from patient MM-3
Protocol: (§1) The activity of the anti-BCMA immunotoxins against BCMA-expressing cell lines and cells from four multiple myeloma patients was tested by WST assay.

MM-1 cells from patient = experiment: WST assay, cells from multiple myeloma patient; type: cell-based, human; details: cells from patient MM-1
Protocol: as §1

MM-4 cells from patient = experiment: WST assay, cells from multiple myeloma patient; type: cell-based, human; details: cells from patient MM-4
Protocol: as §1

MM-2 cells from patient = experiment: WST assay, cells from multiple myeloma patient; type: cell-based, human; details: cells from patient MM-2
Protocol: as §1

H929 cells [3] = experiment: Cell viability by flow cytometry (Annexin V/7AAD staining) after various exposure durations; type: cell-based; details: viability after 3 days
Protocol: H929 cells were exposed to LMB70 for various durations. Cell viability was analyzed after 3 days by flow cytometry (Annexin V/7AAD staining).
H929 cells were exposed to 2 ng/ml LMB70 for various lengths of time from 10 minutes up to 72 hours. Cell viability was analyzed after 3 days by flow cytometry (Annexin V/7AAD staining).

H929 xenograft tumors = experiment: Antitumor activity in mice with H929 xenograft tumors; type: in vivo; details: 1.5 mg/kg QODX5, SCID mice
Protocol: To test the in vivo efficacy of LMB38 and LMB70, tumors were grown in SCID mice using the most sensitive cell line H929. Based on the previous toxicity data, 1.5 mg/kg QODX5 doses were used on 5 mice in each group. […] However, the tumors grew back once the treatment was finished.

BCMA-positive H929 cells = experiment: Cell killing at fixed dose, trypan blue staining after timed exposure; type: cell-based; details: H929, 100 ng/ml
Protocol: Cell killing activity was measured by trypan blue staining of cells taken at various time points (days) after exposure to the immunotoxin.

LP-1 = experiment: WST assay of immunotoxin activity; type: cell-based
Protocol: as §1

HUT-102 = experiment: WST assay of immunotoxin activity; type: cell-based
Protocol: as §1

H929 = experiment: WST assay of immunotoxin activity; type: cell-based
Protocol: as §1

KMS-18 = experiment: WST assay of immunotoxin activity; type: cell-based
Protocol: as §1

RPMI-8226 = experiment: WST assay of immunotoxin activity; type: cell-based
Protocol: as §1

Jeko-1 = experiment: WST assay of immunotoxin activity; type: cell-based
Protocol: as §1

U266B = experiment: WST assay of immunotoxin activity; type: cell-based
Protocol: as §1

JJN-3 = experiment: WST assay of immunotoxin activity; type: cell-based
Protocol: as §1

H929 cells [4] = experiment: WST-8 assay of AF647-labeled and unlabeled LMB70; type: cell-based; details: in ng/mL
Protocol: (§2) LMB70 was labeled with AF647 for measurement of uptake in vivo. LMB70 was labeled twice with AF647 using an AF647 labeling kit (Life Technologies). Labeling efficacy and activity were measured by WST-8 assay and affinity measurement.

BCMA = target: T1, BCMA (Homo sapiens, UniProt Q02223); experiment: Affinity measurement of AF647-labeled and unlabeled LMB70; type: binding; details: after the first labeling
T1 sequence (Q02223 1-184): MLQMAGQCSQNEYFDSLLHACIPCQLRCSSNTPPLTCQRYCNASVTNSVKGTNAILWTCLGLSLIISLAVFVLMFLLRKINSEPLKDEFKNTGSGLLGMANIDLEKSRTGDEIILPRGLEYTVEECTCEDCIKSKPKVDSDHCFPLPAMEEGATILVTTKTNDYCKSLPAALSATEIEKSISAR
Protocol: as §2

H929 cells [5] = experiment: Cell viability by trypan blue staining after 20 minute exposure; type: cell-based; details: 100 ng/ml for 20 minutes
Protocol: H929 cells were exposed to 100 ng/ml LMB70 for 20 minutes. Cell viability was analyzed with trypan blue staining.

## CC(C)C[C@H](NC(=O)[C@H](Cc1ccccc1)NC(=O)c1cnccn1)B(O)O [BTZ, bortezomib]
H929 cells [1]
  IC50: 4 nM

B1: LMB70: anti-BCMA immunotoxin BM306-Fab-LR-GGS (conjugate)
VH: EVQLQQSGPELVKPGASVKISCKTSGYTFTEYTINWVKQSHGKSLEWIGDIYPDNYNIRYNQKFKGKATLTVDKSSSTAYMELRSLSSEDSAIYYCANHDFFVFWGQGTLVTVSA
VL: DIQMTQATSSLSASLGDRVTINCRTSQDISNHLNWYQQKPDGTVKLLIYYTSRLQSGVPSRFSGSGSGTDYSLTISNLEQEDIGTYFCHQGNTLPPTFGGGTKLEIK
modifications: left off: another chain or arm of the molecule; a dimerising Fc or GST; small tags and cut ends
notes: anti-BCMA immunotoxin BM306-Fab-LR-GGS
H929 cells [2]; 2 ng/ml
  effect on cell viability and growth: slight growth inhibition, but no cell killing
H929 cells [2]; 10 ng/ml
  effect on cell viability and growth: not enough to kill all cells
MM-3 cells from patient
  IC50: 0.0023 µg/mL
MM-1 cells from patient
  IC50: 0.0004 µg/mL
MM-4 cells from patient
  IC50: 0.0179 µg/mL
MM-2 cells from patient
  IC50: 0.017 µg/mL
H929 cells [3]; 2 ng/ml, even after 24 hours of exposure
  cell death: did not die
H929 cells [3]; 100 ng/ml
  exposure time sufficient to kill cells: ≤ 10 min
H929 xenograft tumors
  tumor growth compared to PBS-treated mice: delayed
  tumors once the treatment was finished: grew back
BCMA-positive H929 cells; 2 hr exposure, D-1
  Percent dead: 43%
BCMA-positive H929 cells; 2 hr exposure, D-2
  Percent dead: 88%
BCMA-positive H929 cells; 2 hr exposure, D-5
  Percent dead: 100%
BCMA-positive H929 cells; 2 hr exposure, D-7
  Percent dead: 100%
BCMA-positive H929 cells; 4 hr exposure, D-1
  Percent dead: 44%
BCMA-positive H929 cells; 4 hr exposure, D-2
  Percent dead: 89%
BCMA-positive H929 cells; 4 hr exposure, D-5
  Percent dead: 100%
BCMA-positive H929 cells; 4 hr exposure, D-7
  Percent dead: 100%
BCMA-positive H929 cells; 6 hr exposure, D-1
  Percent dead: 42%
BCMA-positive H929 cells; 6 hr exposure, D-2
  Percent dead: 88%
BCMA-positive H929 cells; 6 hr exposure, D-5
  Percent dead: 100%
BCMA-positive H929 cells; 6 hr exposure, D-7
  Percent dead: 100%
BCMA-positive H929 cells; 24 hr exposure, D-1
  Percent dead: 51%
BCMA-positive H929 cells; 24 hr exposure, D-2
  Percent dead: 95%
BCMA-positive H929 cells; 24 hr exposure, D-5
  Percent dead: 100%
BCMA-positive H929 cells; 24 hr exposure, D-7
  Percent dead: 100%
LP-1
  IC50: 0.02 µg/mL
HUT-102
  IC50: >0.1 µg/mL
H929
  IC50: 0.0011 µg/mL
KMS-18
  IC50: 0.065 µg/mL
RPMI-8226
  IC50: 0.0051 µg/mL
Jeko-1
  IC50: >0.1 µg/mL
U266B
  IC50: 0.005 µg/mL
JJN-3
  IC50: 0.004 µg/mL
H929 cells [4]; after the first labeling
  IC50 (WST-8): 1.532
H929 cells [4]; after the second labeling
  IC50 (WST-8): 2.758
BCMA
  Bmax (affinity measurement): 2220
H929 cells [5]
  time after exposure at which cells started to die: 24 h
  time after which all cells were dead: 3 days

From patent US10925969B2, “Anti-BCMA polypeptides and proteins” (priority 2015, dated 2021)
